Source: publication PMC6001692, “Chlamydial virulence factor TarP mimics talin to disrupt the talin‐vinculin complex” (Febs Letters, 2018)
Where no end group is shown, it is not given here.

How the values were obtained:
[1] = molecular target: T1, FAK‐FAT domain (residues 941–1090) (Mus musculus, UniProt P34152); experiment: Fluorescence polarisation assay, fluorescein-labelled LD-motif peptides titrated with FAK-FAT domain; assay type: binding
T1 construct: the FAK‐FAT domain (residues 941–1090); 6xHis (cleaved yes); made in house; host or cells: E. coli BL21 (DE3)
T1 sequence (P34152 904-1052 limits assumed): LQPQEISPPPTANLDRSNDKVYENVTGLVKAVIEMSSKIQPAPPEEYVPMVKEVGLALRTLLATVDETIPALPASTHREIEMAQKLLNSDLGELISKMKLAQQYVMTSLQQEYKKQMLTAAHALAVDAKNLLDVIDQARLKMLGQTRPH
From the text: Chicken vinculin Vd1 (residues 1–259), murine talin R10 (residues 1815–1973), and the FAK‐FAT domain (residues 941–1090) were cloned into a pET151 vector (Invitrogen) and expressed in E .coli BL21 (DE3) cells cultured in LB. Standard nickel‐affinity chromatography was used to purify the His‐tagged recombinant proteins as described previously 15. The proteins were further purified using anion‐exchange chromatography following cleavage of the 6xHis‐tag with TEV protease. Protein concentrations were determined using the respective extinction coefficients at 280 nm.
Peptides with either a C‐ or N‐terminal cysteine were synthesised by GLBiochem (China).
Peptides were coupled to a thiol‐reactive fluorescein dye via the terminal cysteine. Stock solutions were made in phosphate‐buffered saline (PBS; 137 mM NaCl, […], […], […], pH 7.4), 1 mM TCEP and 0.05% Triton X‐100. Excess dye was removed using a PD‐10 desalting column (GE Healthcare, Chicago, IL, USA). […] Fluorescent polarisation (FP) measurements were recorded on a BMGLabTech CLARIOstar plate reader at room temperature and analysed using GraphPad Prism. K d values were calculated with nonlinear curve fitting using a one‐site total binding model. […]

[2] = molecular target: T2, vinculin Vd1 (residues 1–259) (Gallus gallus, UniProt P12003); experiment: Fluorescence polarisation assay, fluorescein-labelled peptides titrated with vinculin head Vd1; assay type: binding, Chicken; settings: FP; negative control; Kd ND in Fig. 1D
T2 construct: Chicken vinculin Vd1 (residues 1–259); 6xHis (cleaved yes); made in house; host or cells: E. coli BL21 (DE3)
Method: Peptides were coupled to a thiol‐reactive fluorescein dye via the terminal cysteine. Stock solutions were made in phosphate‐buffered saline (PBS; 137 mM NaCl, 27 mM KCl, 100 mM Na2HPO4, 18 mM KH2PO4, pH 7.4), 1 mM TCEP and 0.05% Triton X‐100. Excess dye was removed using a PD‐10 desalting column (GE Healthcare, Chicago, IL, USA). Titrations were performed in PBS using a constant 1 μM concentration of fluorescein‐coupled peptide with increasing concentration of protein; final volume 100 μL in a black 96‐well plate. Fluorescent polarisation (FP) measurements were recorded on a BMGLabTech CLARIOstar plate reader at room temperature and analysed using GraphPad Prism. K d values were calculated with nonlinear curve fitting using a one‐site total binding model.
In this assay, synthetic VBS peptides (Materials and methods) were fluorescently labelled with fluorescein and titrated against an increasing concentration of Vd1.

[3] = molecular target: T3, Chicken vinculin Vd1 (residues 1–259) (chicken, UniProt P12003 1-259); experiment: SEC-MALS; analytical gel filtration, Superdex-75, 4 °C, 50 mM Tris pH 7.5, 150 mM NaCl, 2 mM DTT; 100 μM of each protein at 1:1 (talin:Vd1), incubated at 37 °C for 30 min; settings: both partners purified
T3 construct: also called vinculin head; vinculin head domain
T3 sequence (looked up): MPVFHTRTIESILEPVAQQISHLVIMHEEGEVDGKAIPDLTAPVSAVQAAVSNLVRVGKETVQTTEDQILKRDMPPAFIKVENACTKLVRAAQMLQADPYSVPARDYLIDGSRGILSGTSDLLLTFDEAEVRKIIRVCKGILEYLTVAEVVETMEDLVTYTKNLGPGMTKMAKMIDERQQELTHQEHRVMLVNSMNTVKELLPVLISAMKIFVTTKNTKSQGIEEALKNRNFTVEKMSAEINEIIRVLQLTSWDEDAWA

[4] = molecular target: FAK‐FAT domain (residues 941–1090); experiment: fluorescence polarisation; 1 μM fluorescein-coupled peptide constant, increasing concentration of protein; PBS, room temperature, 96-well plate; one-site total binding fit; triplicate
[5] = molecular target: T3, Chicken vinculin Vd1 (residues 1–259); experiment: as above; settings: both partners purified

Work on `CC(C)C[C@H](NC(=O)[C@H](CCC(=O)O)NC(=O)[C@H](CC(C)C)NC(=O)[C@H](CC(C)C)NC(=O)[C@H](CC(C)C)NC(=O)[C@H](CCCNC(=N)N)NC(=O)[C@H](CC(=O)O)NC(=O)[C@H](CC(C)C)NC(=O)[C@H](CCC(=O)O)NC(=O)[C@H](CO)NC(=O)[C@H](CC(C)C)NC(=O)[C@H](CC(N)=O)NC(=O)[C@@H](N)CS)C(=O)N[C@@H](CC(N)=O)C(=O)O` [Paxillin LD2, reference compound] yielded a Kd ([1]; FP, 1 μM fluorescein-coupled peptide, increasing FAK-FAT, PBS, room temperature, ± SE, read-out: Dissociation constant Kd for binding to FAK-FAT) of 9.01 µM.

For “EGAEGLEHLLPQLRSHLDDAFDQQGN‐C [TarP LD, synthetic LD-motif peptide of C. caviae TarP, residues 655–680, with C-terminal cysteine]”, the “Interaction with Vd1 (in words)” value [2] was “does not interact with Vd1” and the “Binding to FAK-FAT by FP (in words)” value ([1]; fluorescein-labelled peptide, Kd ND in Fig. 4B) was “no increase in polarisation”.

B1: murine talin R10 (residues 1815–1973) (domain or fragment, UniProt P26039 1815-1973, looked up)
chain: NEAASAAGVVGGMVDSITQAINQLDEGPMGDPEGSFVDYQTTMVRTAKAIAVTVQEMVTKSNTSPEELGPLANQLTSDYGRLASQAKPAAVAAENEEIGAHIKHRVQELGHGCSALVTKAGALQCSPSDVYTKKELIECARRVSEKVSHVLAALQAGNR
notes: also called talin rod domain R10
For B1, the “stoichiometry N” value [3] was 1.

B2: Pax_LD2 peptide (paxillin residues 141–153) with N-terminal cysteine, fluorescein-coupled (peptide)
peptide: CNLSELDRLLLELN
modifications: fluorescein (thiol-reactive dye) coupled via the N-terminal cysteine
For B2, the Kd [4] was 9 µM.

B3: TarP_VBS1 peptide (C. caviae residues 850–868) with C-terminal cysteine, fluorescein-coupled (peptide)
peptide: LLEAARNTTTMLSKTLSKVC(fluorescein)
notes: source: synthetic peptide (GLBiochem)
B3 showed a Kd [5] of 1290 nM.

B4: mTal1_VBS36 peptide (talin residues 1622–1656) with N-terminal cysteine, fluorescein-coupled (peptide)
peptide: C(fluorescein)VNPRDPPRWSVLAGHSRTVSDSIKKLITSMRDKAP
notes: also called talin VBS36; source: synthetic peptide (GLBiochem)
Molecule B4 has a Kd [5] of 1030 nM.
